# Measured values published in patent US8258279B2, “Isolated nucleic acids encoding soluble corticotropin releasing factor receptor type 2 (sCRFR2) polypeptides” (Research Development Foundation, priority 2005, dated 2012).
# “Also recorded” adds a separate entry of the source.
# Key:
# anti-sCRFR2α serum = experiment: Immunohistochemistry, specificity by preincubation of antiserum with synthetic immunogen; conditions: mouse brain sections; antiserum preincubated with immunogen
# Description: Immunohistochemistry. Adult male C57B6J mice (Jackson Laboratories) and Sprague-Dawley albino rats (Harlan Sprague-Dawley) were anesthetized with chloral hydrate (350 mg/kg, ip) and perfused with Zamboni's fixative (Bittencourt et al., 1999), followed by 0-4 hr. post-fixation. Regularly spaced (1-in-4) series of 30 μm thick frontal sections throughout the brain were prepared for nickel-enhanced avidin-biotin-immunoperoxidase localization of sCRFR2α-ir using Vectastain Elite reagents (Vector Laboratories, Burlingame, Calif.). Primary sCRFR2α antisera were adsorbed against the carrier, affinity purified and used at a dilution of 1:2000. Specificity of immunostaining was evaluated using primary antisera preincubated overnight at 4° C. with 0-300 μM synthetic immunogen. Labeling was also evaluated in mutant mice deficient in either or both CRFRs (Smith et al., 1998; Bale et al. 2000). Detailed description of the fluorescence immunocytochemical analysis of COSM6 cells transfected with sCRFR2α can be found in the supporting text.
# Further support for the specificity of labeling are observations that all immunolocalizations persisted in CRFR1- and/or CRFR2-deleted mice; note that the targeting construct used for generating each of the existing receptor-knockout lines would be expected to spare the sCRFR2α coding region (Smith et al., 1998; Timpl et al., 1998; Bale et al., 2000).
# Astressin = biological target: T1, Astressin (Mus musculus, UniProt Q60748); experiment: Radioreceptor assay, competitive displacement of [125I-DTyr0]-astressin bound to sCRFR2α; assay type: binding; conditions: range in parentheses in the next cell
# T1 construct: A cDNA corresponding to amino acids 20-143 was generated by PCR; made in house; host or cells: E. coli
# Description: (§1) Radioreceptor assays. The soluble protein, purified either from COS M6 cell media or E. coli was incubated in triplicate wells with [^125I-DTyr^O]-astressin and increasing concentration of unlabeled peptides as described (Perrin et al., 2003).
# (§2) The interactions of the sCRFR2α with CRF family ligands were assessed by radioreceptor assay using competitive displacement of [^125I-D Tyr^o]-astressin bound to sCRFR2α.
# CRF = biological target: T2, CRF (Mus musculus, UniProt Q60748); experiment: as above; assay type: binding; conditions: range in parentheses in the next cell
# T2 construct: A cDNA corresponding to amino acids 20-143 was generated by PCR; made in house; host or cells: E. coli
# Description: as §1, §2
# mUcn2 = biological target: T3, mUcn2 (Mus musculus, UniProt Q60748); experiment: as above; assay type: binding; conditions: range in parentheses
# T3 construct: A cDNA corresponding to amino acids 20-143 was generated by PCR; made in house; host or cells: E. coli
# Description: as §1, §2
# mUcn3 = biological target: T4, mUcn3 (Mus musculus, UniProt Q60748); experiment: as above; assay type: binding
# T4 construct: A cDNA corresponding to amino acids 20-143 was generated by PCR; made in house; host or cells: E. coli
# Description: as §1, §2
# rUcn1 = biological target: T5, rUcn1 (Mus musculus, UniProt Q60748); experiment: as above; assay type: binding; conditions: range in parentheses in the next cell
# T5 construct: A cDNA corresponding to amino acids 20-143 was generated by PCR; made in house; host or cells: E. coli
# Description: as §1, §2
# [1] = test system: cAMP response to Ucn 1 and CRF in HEK293T cells transfected with mouse CRFR2α; experiment: CRE-luciferase reporter (EVX1) assay of the cAMP response; assay type: cell-based; conditions: 4 h, 0.0001-100 nM Ucn 1 or CRF, 0.1 nM sCRFR2α
# Description: (§3) Luciferase reporter containing a fragment of the CRE promoter of the EVX1 gene was cotransfected into 293T cells with CRFR2α expression vectors. Luciferase activity was measured following treatment (4 h) with 0.0001-100 nM Ucn 1 or CRF, in the presence or absence of 0.1 nM sCRFR2α. Assays were normalized to cotransfected β-galactosidase activity. The representative means of six replicates from one experiment is shown in the graph. FIG. 5B, Equilibrated CATH.a cells were treated with Ucn 1 (10 nM) with or without sCRFR2α (0.4 or 4 nM). After 5 min of receptor stimulation, cell lysates were harvested and subjected to SDS-PAGE immunoblot analysis using phospho-ERK1/2-p42, 44 antibody and ERK2-p44 antibody. The ERK activation was calculated by normalizing the levels of phosphorylated ERK1/2-p42, 44 to total ERK2-p44. The representative of means of triplicates from one experiment is shown in the graph. *, P<0.05 vs. vehicle treatment, #, P<0.05 vs. Ucn 1 treatment, UD=undetected.
# Transient transfections and luciferase assay. […]
# (§4) To delineate the possible functions of sCRFR2α, the inventors studied its effects on signaling by CRF family ligands. […] Because the urocortins activate MAPK signaling (Brar et al., 2002), the inventors measured the ability of sCRFR2α to inhibit the activation by Ucn 1 of ERK1/2-p42, 44 in CATH.a cells, which endogenously express CRFR1 and CRFR2α.
# [2] = test system: activation by Ucn 1 of ERK1/2-p42, 44 in CATH.a cells; experiment: Extracellular receptor kinase 1/2 (ERK1/2) assay; assay type: cell-based; conditions: Ucn 1 10 nM, sCRFR2α 0.4 or 4 nM, 5 min
# Description: as §3, with “The representative of means of triplicates from one experiment is shown in the graph. *, P<0.05 vs. vehicle treatment, #, P<0.05 vs. Ucn 1 treatment, UD=undetected.” left out
# Extracellular receptor kinase 1/2 (ERK1/2) assay. […] Cells were harvested immediately and analyzed for phosphorylated ERK1/2-p42, 44, as previously described (Chen et al., 2005).
# as §4
# [3] = test system: rabbit anti-sCRFR2α (aa 113-143); experiment: sCRFR2α radioimmunoassay (RIA); assay type: binding; conditions: anti-sCRFR2α at 1/300,000; synthetic sCRFR2α (113-143) as standard
# Description: FIGS. 3A-3C. A highly specific antiserum raised in rabbit using a synthetic peptide fragment encoding the unique C-terminal tail of mouse sCRFR2α protein (aa 113-143) was used to develop a sCRFR2α radioimmunoassay, used for immunoblot analysis and for immunocytochemistry. FIG. 3A is a western immunoblot of mouse sCRFR2α isolated from the medium of COS-M6 cells transiently transfected with sCRFR2αFLAG construct reacted with anti-sCRFR2α-(113-143) serum (left panel) or monoclonal M2 anti-FLAG (right panel). Lanes 1, 2, and 3 correspond to 0.1, 1.0, and 10 μl of sCRFR2α-FLAG extract, respectively. FIG. 3B, Displacement of [^125I]Tyr^113 sCRFR2α (aa 113-143) binding to rabbit anti-sCRFR2α (aa113-143) by synthetic sCRFR2α (aa 113-143) and by purified COS-M6 expressed sCRFR2α (aa 113-143)-FLAG. FIG. 3C, Immunofluorescence staining of COS-M6 cells transiently transfected with mouse sCRFR2α construct visualized with the anti-sCRFR2α (aa 113-143) serum followed by a Cy3-conjugated secondary antibody (FIG. 3C(b)). The slides were counterstained with DAPI to visualize both transfected and non transfected cells (FIG. 3C(a)).
# Radio-Immuno Assays (RIA). […]
"Inhibitory binding constants, Ki, Astressin (Astressin)","Inhibitory binding constants, Ki, CRF (CRF)","Inhibitory binding constants, Ki, mUcn2 (mUcn2)","Inhibitory binding constants, Ki, mUcn3 (mUcn3)","Inhibitory binding constants, Ki, rUcn1 (rUcn1)",EC50 in sCRFR2α RIA [3] [pg per tube],Molecule,concentration blocking immunolabeling throughout the brain on pre-incubation of the antiserum (anti-sCRFR2α serum) [µM],inhibition of the cAMP response to Ucn 1 and CRF (CRE luciferase activity) [1],inhibition of induction of phosphorylated ERK by Ucn 1 [2]
,,,,,,"sCRFR2α (113-143): synthetic peptide fragment encoding the unique C-terminal tail (aa 113-143) of mouse sCRFR2α, used as immunogen and RIA standard (YRIALIVNYLGHCVSVVALVAAFLLFLVLRS; soluble splice isoform sCRFR2alpha; UniProt Q60748 113-143, looked up, fragment)",≥ 30,,
nanomolar affinities,nanomolar affinities,much lower,much lower,nanomolar affinities,~5,sCRFR2α: 143 amino acid soluble splice variant of mouse CRF receptor type 2α lacking exon six (protein) MDAALLLSLLEAQLQPGAGRRAAPGRLGSAPGPRRSLHLLQHDLGPDRDLLATERTRSPSRETVPRVLQWHQVQHDPECLQRVPGERDLGLKGQLLTLRTHFG,,"inhibit, in a dose dependent manner; also recorded: interferes with the induction of cAMP",inhibits the induction of phosphorylated ERK; also recorded: interferes with the induction
